± gives the half width of the 95% confidence interval.

Series [1] in a line: folding stability dG unfold from trypsin proteolysis; higher = more stable. A digest of the protocol: (§1)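 Only designs with AlphaFold2 dimer inter-PAE above 15 were retained; each was a mini-protein under 80 residues with no cysteine, in a PA-tagged cDNA display construct. After digestion with trypsin and chymotrypsin and sequencing, K50 was inferred by Bayesian fitting of counts, and unfolding free energy was derived per protease or combined against a sequence-predicted unfolded-state K50 and a shared folded-state K50.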

A short description of series [2]: folding stability dG unfold (combined trypsin and chymotrypsin); higher = more stable. The procedure, abridged:
as §1

A short description of series [3]: folding stability dG unfold from chymotrypsin proteolysis; higher = more stable. A digest of the protocol: as §1

Take “SAGGMTEEEAKELAKELAEKYAEEKGIEEIELKIESVEKEGDKFTVKVKLTFPNEEKTITITIPKDLISAGG [r13_611_JUSTAS]”: the “folding stability dG unfold” value in series [1] came to 3.34 ± 0.21 kcal/mol; in series [2] it was 3.24 ± 0.11 kcal/mol; in series [3], 3.21 ± 0.19 kcal/mol.
Turning to “SAGGMTEVSEVERSVIPDEGIPVTLERVETTVTVPPTTYKDEKGEVLPPGAVVHTESTVTIEERPELSAGGS [r8_262_JUSTAS]”, the “folding stability dG unfold” value in series [1] amounted to 0.22 ± 0.036 kcal/mol; in series [2], 0.257 ± 0.14 kcal/mol; in series [3] it was 0.095 ± 0.1 kcal/mol.
On to “SAGGMTFETETITLEFPPEDEEEIRKRAEEIAEKLKKEYEKKGYKVEVEFSYDPETGVLTITIKFEKKSAGG [r13_755_JUSTAS]”, for which the “folding stability dG unfold” value in series [1] was 3.57 ± 0.19 kcal/mol; in series [2], 3.99 ± 0.11 kcal/mol; in series [3] it was 4.19 ± 0.067 kcal/mol.
As for “SAGGMTFTITVTIPAKEKFYDPSKGIWRERELNRVITIPFSSSDIEKAKEEVRSKLPPDKYKITSVDSAGGS [r16_459_JUSTAS]”, the “folding stability dG unfold” value in series [1] came out at 1.29 ± 0.04 kcal/mol; in series [2], 1.19 ± 0.12 kcal/mol; in series [3], 1.21 ± 0.17 kcal/mol.
Take “SAGGMTIRVEVFRDGELVETLEFEGSVEELLAKLPPEVTYVRIEVEKDGKTETVEFKTAEELKAALKSSAGG [r13_299_TrROS_Hall]”: the “folding stability dG unfold” value in series [1] is 2.13 ± 0.076 kcal/mol; in series [2], 2.91 ± 0.17 kcal/mol; in series [3], 3.33 ± 0.067 kcal/mol.
For “SAGGMTITFPEGITITFSPDNTATVTINFPGNPLTLTLNATTLEEVIETAKKAAEEFRKPPPKLVLKVSAGG [r13_896_JUSTAS]”, the figures for the “folding stability dG unfold” value in series [1], in series [2] and in series [3] were 1.13 ± 0.035 kcal/mol, 1.6 ± 0.096 kcal/mol and 1.72 ± 0.1 kcal/mol, respectively.
With “SAGGMTITIDPTPDGVRIKIYDDGKPREIPVAPEVLELIQQNPTLEEIIRELFPPGHPIEKIEIEPWSAGGS [r16_567_TrROS]”, the figures for the “folding stability dG unfold” value in series [1], in series [2] and in series [3] were 1.57 ± 0.071 kcal/mol, 1.15 ± 0.22 kcal/mol and 1.03 ± 0.17 kcal/mol, respectively.
For “SAGGMTITVTKKTKPEDVEKLVEEIKEELEKKGYNVKKIEVTYKVVKDPNSSNEIVELTLTIEVEKPSAGGS [r8_475_JUSTAS]”, the “folding stability dG unfold” value in series [1] is 4.55 ± 0.89 kcal/mol; in series [2], 5.28 ± 0.31 kcal/mol; in series [3] it was 5.03 ± 0.21 kcal/mol.
For the sequence “SAGGMTITVTVPEVPPDRTVTVEVYKPGEKLGSYSGTLNQPKNVTYTFTVPPATITINYSDGKTYPIPLSAG [r5_646_JUSTAS]”, the entries for the “folding stability dG unfold” value in series [1], in series [2] and in series [3] were 2.22 ± 0.19 kcal/mol, 3.01 ± 0.25 kcal/mol and 3.4 ± 0.038 kcal/mol, respectively.
Regarding “SAGGMTIVEVEYTAYDLNSNKSVVVKAYKDPSTGKMTITSSDGVEGEFDPVTKTISLPRGSKSVTLGSAGGS [r16_743_JUSTAS]”, the “folding stability dG unfold” value in series [1] is 0.266 ± 0.074 kcal/mol; in series [2], 0.521 ± 0.081 kcal/mol; in series [3], 0.623 ± 0.11 kcal/mol.
For “SAGGMTKIEVEYYPEKITVTVTTDNPSENPLDIIKKKTGFKIEGGEVLYPSPNVVVVKLKVDPKDLKKSAGG [r13_498_JUSTAS]”, the “folding stability dG unfold” value was 0.443 ± 0.11 kcal/mol in series [1], 0.799 ± 0.27 kcal/mol in series [2] and 1.07 ± 0.11 kcal/mol in series [3].
The matching figures for “SAGGMTKTESEVFFEPDGSSSSAKVTITVDDGPLTANVTISPDSVTTTINYPDGSTVTTTTSVSPAASAGGS [r16_108_JUSTAS]”: 0.942 ± 0.081 kcal/mol, 1.27 ± 0.13 kcal/mol and 1.48 ± 0.052 kcal/mol.
Regarding “SAGGMTLEERAEALAAERGWTVTSIELVEEKPGEVKFRVTFRLPDGSLETVEITVKRPPPVPPDNLLSAGGS [r8_309_JUSTAS]”, the “folding stability dG unfold” value in series [1] was 3.73 ± 0.11 kcal/mol; in series [2] it was 3.74 ± 0.057 kcal/mol; in series [3], 3.726 ± 0.025 kcal/mol.
The matching figures for “SAGGMTLEFELEAEPLEEVEKRVRELLRELGFPESVEITIEPKKPDDGSVIYPVKVTLNDPALEARLSAGGS [r8_85_JUSTAS]”: 1.04 ± 0.038 kcal/mol, 1.11 ± 0.097 kcal/mol and 1.22 ± 0.036 kcal/mol.
“SAGGMTLEITITFPGPEMLEEAKKIIDELGIELVNPTPNSLTVKAKGPEEVAKIKEEAKKLGFTVTGSAGGS [r16_88_JUSTAS]”: the “folding stability dG unfold” value in series [1] was found to be 2.92 ± 0.21 kcal/mol; in series [2], 3.13 ± 0.14 kcal/mol; in series [3] it was 3.19 ± 0.086 kcal/mol.
For the sequence “SAGGMTLLKVRIYIPSEPKPIEVELFTDGDPEKAEEAVRELVEELGYPDAKVEVELLEVDPSDPRFLGSAGG [r13_682_TrMRF]”, the entries for the “folding stability dG unfold” value in series [1], in series [2] and in series [3] were 2.38 ± 0.041 kcal/mol, 3.57 ± 0.051 kcal/mol and 3.984 ± 0.024 kcal/mol, respectively.
Take “SAGGMTLRITTADGRVIEIEADSLEDALAALRTLLGLKPGDVLTVEVVVEVDGEKKTFTLTIVLPPEPSAGG [r13_145_TrROS_Hall]”: the entries for the “folding stability dG unfold” value in series [1], in series [2] and in series [3] were 4.95 ± 0.14 kcal/mol, greater than 6 kcal/mol and 6.08 ± 0.089 kcal/mol, respectively.
Turning to “SAGGMTLVIKVTNKDGSTLTITFDAETNTITITFPDGTTRTITVPADTTIEELIAALPPDAKVEILPASAGG [r13_696_TrROS_Hall]”, the entries for the “folding stability dG unfold” value in series [1], in series [2] and in series [3] were 3.42 ± 0.073 kcal/mol, 4.55 ± 0.1 kcal/mol and 4.75 ± 0.11 kcal/mol, respectively.
“SAGGMTRKLTFLGDIDKPVGLDGDIEIRPNPETGGFTIRVPPGVRIEAEVERLTDPPLALVTVTFLESAGGS [r16_122_TrMRF]”: the “folding stability dG unfold” value in series [1] is -0.118 ± 0.082 kcal/mol; in series [2], 0.715 ± 0.054 kcal/mol; in series [3] it was 1.03 ± 0.074 kcal/mol.
The matching figures for “SAGGMTTFELYDPVNNKKYTLTYDPATNTLTLYNPENGEILETKPVPNLQSVEAPIVPGGIEVGVVINSAGG [r13_720_JUSTAS]”: 2.11 ± 0.07 kcal/mol, 2.5 ± 0.085 kcal/mol and 2.75 ± 0.062 kcal/mol.
Turning to “SAGGMTTTTLTLEEFLEKYPEEVVKERTEKPLGPGANLTIVTLTAPGTTITVTSNPAQPDIWTVTTVTSAGG [r13_942_JUSTAS]”, the “folding stability dG unfold” value in series [1] came to 0.75 ± 0.018 kcal/mol; in series [2], 0.965 ± 0.051 kcal/mol; in series [3], 1.11 ± 0.049 kcal/mol.
Turning to “SAGGMTTTVELELEDPVNLGVPVRVEATVTYEKDPNGNPVAKAEITTTYPDGKEEKTTIPVSELKGLGSAGG [r13_787_JUSTAS]”, the “folding stability dG unfold” value is 0.294 ± 0.059 kcal/mol in series [1], -0.00381 ± 0.17 kcal/mol in series [2] and -0.603 ± 0.13 kcal/mol in series [3].
The matching figures for “SAGGMTVETTTVTLAAGTTYTVTTPSDSTVEVVDTETGVVRRFDVPASTDFSVTLPADRTYDITVVRRSAGG [r19_78_JUSTAS]”: 0.7932 ± 0.0053 kcal/mol, 1.15 ± 0.032 kcal/mol and 1.35 ± 0.022 kcal/mol.
As to “SAGGMTVKITIEVEEPGKTAEELAEELARELEKAGFKVEVVSVEVEEVDGRLIVTIEVKVDSEEALKASAGG [r13_979_TrROS_Hall]”, the “folding stability dG unfold” value is 2.36 ± 0.055 kcal/mol in series [1], 2.52 ± 0.058 kcal/mol in series [2] and 2.55 ± 0.077 kcal/mol in series [3].
Taken in the same sequence, the figures for “SAGGMTVPIFVPVDSPEQVEEILEELATPDVKEIVPATLPPLPPPGDKMVVPINITIFPGTGKAVIDASAGG [r13_174_TrMRF]” were -1.08 ± 0.12 kcal/mol, 0.492 ± 0.086 kcal/mol and 0.991 ± 0.014 kcal/mol.
In the case of “SAGGMTVTIPYKGSPELAERVVEAIQEAFPEVRVEEVVVEPGDPTNITITVRFDNDVPASAIAEVLSSAGGS [r16_180_JUSTAS]”, the “folding stability dG unfold” value amounted to 2.24 ± 0.041 kcal/mol in series [1], 1.85 ± 0.071 kcal/mol in series [2] and 1.55 ± 0.035 kcal/mol in series [3].
As to “SAGGMTVTVKVTEIKKIGDKYEITLKNPDGTPKTVTIDDPEVVKKITPDSEVTVTVNPDGSYTITLESAGGS [r16_2_JUSTAS]”, the “folding stability dG unfold” value in series [1] was determined as 3.74 ± 0.28 kcal/mol; in series [2], 3.84 ± 0.29 kcal/mol; in series [3], 3.48 ± 0.23 kcal/mol.
On to “SAGGMVEELDAKDADKIIVGADPDEEVFVLVEVYDDGELLEVVELEPGEEIEIPKDYKVKIVTVPKDLSAGG [r13_978_TrMRF]”, for which the “folding stability dG unfold” value in series [1] is 0.119 ± 0.081 kcal/mol; in series [2] it was -0.293 ± 0.52 kcal/mol; in series [3] it was -0.0827 ± 0.63 kcal/mol.
On to “SAGGMVEEVKELAKELGFDVEIELTSVYGEKGYVPYKVTFPNGKTYYITFKGSPDEMKKKLRDLLEKSAGGS [r16_153_TrMRF]”, for which the results for the “folding stability dG unfold” value in series [1], in series [2] and in series [3] were 2.2 ± 0.058 kcal/mol, 2.82 ± 0.065 kcal/mol and 2.99 ± 0.034 kcal/mol, respectively.
The matching figures for “SAGGMVIIIPSPDNTVLIIEIEGDKAKIIIINPEDGSAVIIELPIEPNGDGSFILKITSIEVLEDADISAGG [r13_556_TrMRF]”: 2.97 ± 0.2 kcal/mol, 3.27 ± 0.26 kcal/mol and 3.34 ± 0.13 kcal/mol.
“SAGGMVIKVTDAEEAIERVIELVKSLGPEAVIKEITVTNTGTVVKVEPGKKGTVSPDSTITVNIEKGSAGGS [r16_267_JUSTAS]”: the entries for the “folding stability dG unfold” value in series [1], in series [2] and in series [3] were -0.0389 ± 0.066 kcal/mol, 0.662 ± 0.14 kcal/mol and 0.938 ± 0.075 kcal/mol, respectively.
As for “SAGGMVIPPEATLTGSTTSWVTTSDGRKLLVTTPVYRFPGNTTVVVSTVTDPTSAASTVTVSTEPALSAGGS [r16_370_JUSTAS]”, the “folding stability dG unfold” value was 0.498 ± 0.069 kcal/mol in series [1], 0.374 ± 0.085 kcal/mol in series [2] and 0.107 ± 0.12 kcal/mol in series [3].
On to “SAGGMVKLTITITTENETTTYPRVVPEEELEEVKKEAEELAKKLGADPKTVTVSKVERLKEPGGVPVSAGGS [r16_650_JUSTAS]”, for which the entries for the “folding stability dG unfold” value in series [1], in series [2] and in series [3] were 0.694 ± 0.029 kcal/mol, 0.856 ± 0.061 kcal/mol and 0.901 ± 0.033 kcal/mol, respectively.
On to “SAGGMVLFRIRFRTGPDGIVRLDPELLEQAEGADIDEDDPRVALILAEPEFLEKLSPELLEEAEILPSAGGS [r16_328_TrMRF]”, for which the “folding stability dG unfold” value in series [1] was 0.607 ± 0.1 kcal/mol; in series [2], 0.684 ± 0.047 kcal/mol; in series [3], 0.606 ± 0.12 kcal/mol.
Consider “SAGGMVLKPVKLNGNENLKTTADGAEVEYTSDGKGNVTITVRYEPNLTVEALVNGSTVTLVKTEEGYLSAGG [r13_92_JUSTAS]”, for which the “folding stability dG unfold” value in series [1] came out at 0.843 ± 0.09 kcal/mol; in series [2] it was 0.867 ± 0.15 kcal/mol; in series [3] it was 0.937 ± 0.11 kcal/mol.
The matching figures for “SAGGMVLVERDGDRLVLLIPFPADEPPTPEEVEAEARAILRELGPDVRIRSVHRLPDGGYLVEAEVDSAGGS [r8_103_TrMRF]”: 3.17 ± 0.065 kcal/mol, 3.56 ± 0.041 kcal/mol and 3.69 ± 0.038 kcal/mol.

These data come from the supplement of paper PMC12764529.
